According to PMC8266614, “Stabilization of Hfq-mediated translational repression by the co-repressor Crc in Pseudomonas aeruginosa” (Nucleic Acids Research, 2021):

Target: T1, Hfq_(S65C)-Flag (P. aeruginosa, UniProt Q9HUM0 1-82, S65C)
T1 construct: also called Hfq S65C-Flag protomer of Hfq*; source: E. coli JW4130F'Δhfq(pKEHfqPae); not shown: FLAG, C-terminal, kept
Assay: co-IP
Conditions: both partners purified

B1: P. aeruginosa Hfq, wild type (natural protein)
chain: MSKGHSLQDPYLNTLRKERVPVSIYLVNGIKLQGQIESFDQFVILLKNTVSQMVYKHAISTVVPSRPVRLPSGDQPAEPGNA
notes: RNA chaperone Hfq of Pseudomonas aeruginosa, wild type, from plasmid pKEHfqPae; In the row with m4 the wild-type protomer inside the mixed hexamer is meant; also called Hfq wt; Pae Hfq; source: for Hfq* co-produced with Hfq_(S65C)-Flag in the same strain
Question: With B1 as the binder, how does the “stoichiometry N” value read?
Answer: Its value is 1 Hfq wt per Hfq_(S65C)-Flag.
